How the values were obtained:
Assay in all cases: ITC
[1] = target: T1, TbPRMT1 ENZ-PRO complex (wild type) (Trypanosoma brucei, UniProt Q4GYA9 1-345)
[2] = target: TbPRMT1 ENZ-Δ21PRO complex (Trypanosoma brucei, UniProt Q4GYA9 1-345)
[3] = target: TbPRMT1 ENZ-Δ31PRO complex (Trypanosoma brucei, UniProt Q4GYA9 1-345)
[4] = target: T1, TbPRMT1 ENZ-PRO complex (wild type); remark: listed apart in the source
[5] = target: TbPRMT1 ENZ-Δ45PRO complex (Trypanosoma brucei, UniProt Q4GYA9 1-345)

B1: Maltose Binding Protein (MBP)-fused TbRGG1 (natural protein)
chain: MVCSTICLFQRGQWGNEGSRGDQRNYDNRGGRGEWGDRGGQRGDNQRDYGDQRNYDNRGGRGEWGDRGGQRGDNQRDYGDQRNYDNRGGRGEWGDRGGQRGDNQRDYGDQRNYDNRGGRGEWGDRGGQRGDNQRDYGDQRNYDNRGGRGEWGDRGGQRGDNQRDYGDQRNYDNRGGRGEWGDRGGQRGDNQRNYDNRGGRGEWGDRGGQRGGNQRDNSNQFGYRNERDGGIGRQRSARDNFGAHDNRASDERGSTDPAVGEVFDEQAAKILYELKRRFKSSKTGKERRDVQREARRIVRRARVDPSTQDEKSVTLLLNCAATFRCYPHTEGIKQATEWMRKNIDGLSPQNVALFTNAIGALSVVDSDTILINEISPAVEACYGQMNPVELVMTLQAFQRGRITENEDLQVSLLQQLVTCVPQMPAPQLSTLAGVLVDTPLRKRDEATWQEIAKTVVSKAASGAENMHSREVITLLKATPRLGVPEDHSFHLVDRAIATVGFHTDEQIGELLEAVSYYRDPQKTCGRELNEKLDKLVDALWARLQKVAPFADAASVTTIMRAAHRSGVDVPRDIVSTLVQAVMRELRYHRFTFRRVASLSEALALQKVPAKELLVMLGDYCIGKRPPREERGENTPVDDHNSGIEERMDIYARFLGDLTKARIALENAHSSNAGNGEPGSSVSQILAQRLEDSVGSAPPRELLKSVRAICTAADDCPFRNRANDGKIIALSEQRIAKEGASFMEGVRKTTMENFLSAVSGIPQAQKVVEVLSHQTR
How did the “stoichiometry N” value [1] turn out when B1 was run?
Its value is 1.

What about the Kd [2] of the same binder?
Its Kd is 36 µM.

And the Kd [3]?
Its Kd is 86 µM.

What about the Kd [4] of the same binder?
The Kd was 9 µM.

And the Kd [5]?
The Kd was 160 µM.

— paper PMC6995776 (Journal of molecular biology, 2019)
